This experiment deals with angiotensin converting enzyme (ACE, EC 3.4.15.1, Sigma). Kind of experiment: cell-based or functional assay.

ACEI activity, IC50 data for one substance are collected here from patent US20060280804A1.

Bounds are passed on as bounds.

In turn, “ovalbumin grade VI (99% purity, Sigma), unhydrolysed (from UniProt P01012 2-386)” registered an ACEI activity, IC50 above 750 µg/mL.
